Numbering of substitutions follows the chain as printed. Names may count otherwise.
What was measured:
[1] = biological target: T1, FcγRIIa R (extracellular domain, C-terminal His tag) (human, UniProt P12318 34-217); assay: SPR (Biacore); He/Con for FcγRIIa R divided by He/Con for FcγRIIb
T1 construct: extracellular domain; Soluble receptor used as analyte in Biacore; also called FcgRIIa R; 2aR; not shown: His tag attached to the C terminus
T1 sequence (looked up): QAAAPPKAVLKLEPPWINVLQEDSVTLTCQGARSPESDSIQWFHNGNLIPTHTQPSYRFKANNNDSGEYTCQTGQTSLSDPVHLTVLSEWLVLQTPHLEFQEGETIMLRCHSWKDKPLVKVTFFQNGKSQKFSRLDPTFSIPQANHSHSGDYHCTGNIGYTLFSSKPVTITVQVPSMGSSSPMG
Description: (§1) The heterodimerized antibodies He Abs in which one of the H chains was introduced with an alteration were assayed for their binding activities to each activating FcγR and inhibitory FcγR according to the method described in Example 4. […] The activating FcγRs in FIGS. 26, 27, 28, and 29 are FcγRIa, FcγRIIa (R), FcγRIIa (H), and FcγRIIIa, respectively.
(§2) Analysis of interaction between objective antibody and the FcγR was carried out using Biacore T100 (GE Healthcare). HBS-EP+ (GE Healthcare) was used as the running buffer, and the measurement temperature was set to 25° C. Chips produced by immobilizing the antigen peptide by the amine coupling method to a Series S Sencor Chip CM5 (GE Healthcare), or alternatively, chips produced by allowing preliminarily biotinylated antigen peptides to interact with and immobilize onto a Series S Sensor Chip SA (certified) (GE Healthcare) were used. Antibodies of interest were captured onto an antigen peptide-immobilized chip, and allowed to interact to each FcγR diluted with running buffer. To regenerate and repeatedly use the chip, the antibodies captured on the chip were washed off by reacting 10 mM glycine-HCl, pH 1.5.

[2] = biological target: T1, FcγRIIa R (extracellular domain, …); assay: SPR (Biacore T100), antibody captured on antigen peptide chip, FcγR as analyte; relative binding amount
Description: as §1, §2

[3] = biological target: T2, FcγRIIb (extracellular domain, C-terminal His tag) (human, UniProt P31994 43-217); assay: as above
T2 construct: extracellular domain; Soluble receptor used as analyte in Biacore; also called FcgRIIb; 2b; not shown: His tag attached to the C terminus
T2 sequence (looked up): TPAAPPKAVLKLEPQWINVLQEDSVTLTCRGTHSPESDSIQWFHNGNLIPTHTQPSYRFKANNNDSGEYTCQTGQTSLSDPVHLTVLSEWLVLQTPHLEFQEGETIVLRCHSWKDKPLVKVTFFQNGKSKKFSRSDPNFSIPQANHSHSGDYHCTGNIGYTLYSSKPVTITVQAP
Description: as §1, §2

[4] = biological target: T3, FcγRIa extracellular domain with C-terminal His tag (human, UniProt P12314 16-292); assay: SPR (Biacore T100), ratio of KD values
T3 construct: extracellular domain; also called FcgRIa; FcgRI
Description: (§3) These antibodies were assessed for the binding activity to each FcγR according to the method described in Reference Example 2.
as §2
(§4) The FcγR-binding activity of each antibody was assessed primarily using as an indicator the FcγR-binding activity and dissociation constant for FcγR.

[5] = biological target: T4, FcγRIIa type H extracellular domain with C-terminal His tag (human, UniProt P12318 34-217); assay: SPR (Biacore T100), ratio of KD values
T4 construct: extracellular domain; also called FcgRIIa H; FcγRIIa H
T4 sequence (looked up): T1 sequence (looked up) with R134H
Description: as §3, §2, §4

[6] = biological target: T5, FcγRIIa type R extracellular domain with C-terminal His tag (human, UniProt P12318 34-217); assay: SPR (Biacore T100), ratio of KD values
T5 construct: extracellular domain; also called FcgRIIa R; FcγRIIa R
T5 sequence (looked up): T1 sequence (looked up)
Description: as §3, §2, §4

[7] = biological target: T6, FcγRIIb extracellular domain with C-terminal His tag (human, UniProt P31994 43-217); assay: SPR (Biacore T100), ratio of KD values
T6 construct: extracellular domain; also called FcgRIIb
T6 sequence (looked up): T2 sequence (looked up)
Description: as §3, §2, §4

[8] = biological target: T7, FcγRIIIa type F extracellular domain with C-terminal His tag (human, UniProt P08637 17-208); assay: SPR (Biacore T100), ratio of KD values
T7 construct: extracellular domain; also called FcgRIIIa F; FcγRIIIa F
Description: as §3, §2, §4

[9] = biological target: T8, FcγRIIIa type V extracellular domain with C-terminal His tag (human, UniProt P08637 17-208); assay: SPR (Biacore T100), ratio of KD values
T8 construct: extracellular domain; also called FcgRIIIa V; FcγRIIIa V
Description: as §3, §2, §4

[10] = biological target: T3, FcγRIa extracellular domain with …; assay: SPR (Biacore T100), antibody captured on antigen-peptide chip, FcγR analyte, 1:1 Langmuir fit
Description: as §3, §2, §4

[11] = biological target: T4, FcγRIIa type H extracellular domain …; assay: as above
Description: as §3, §2, §4

[12] = biological target: T5, FcγRIIa type R extracellular domain …; assay: as above
Description: as §3, §2, §4

[13] = biological target: T6, FcγRIIb extracellular domain with …; assay: as above
Description: as §3, §2, §4

[14] = biological target: T7, FcγRIIIa type F extracellular domain …; assay: as above
Description: as §3, §2, §4

[15] = biological target: T8, FcγRIIIa type V extracellular domain …; assay: as above
Description: as §3, §2, §4

[16] = biological target: T9, FcgRIIa R extracellular domain with C-terminal His tag (human, UniProt P12318 34-217); assay: ratio of SPR (Biacore) KDs, FcγRIIb as reference; antibody captured on chip, FcγR as analyte
T9 construct: extracellular domain; also called FcγRIIa R; FcγRIIa type R; not shown: His tag attached to the C terminus
T9 sequence (looked up): T1 sequence (looked up)
Description: as §3, §2, §4

[17] = biological target: T10, FcgRIIa H extracellular domain with C-terminal His tag (human, UniProt P12318 34-217); assay: as above
T10 construct: extracellular domain; also called FcγRIIa H; FcγRIIa type H; not shown: His tag attached to the C terminus
T10 sequence (looked up): T1 sequence (looked up) with R134H
Description: as §3, §2, §4

T3 sequence (P12314 16-292): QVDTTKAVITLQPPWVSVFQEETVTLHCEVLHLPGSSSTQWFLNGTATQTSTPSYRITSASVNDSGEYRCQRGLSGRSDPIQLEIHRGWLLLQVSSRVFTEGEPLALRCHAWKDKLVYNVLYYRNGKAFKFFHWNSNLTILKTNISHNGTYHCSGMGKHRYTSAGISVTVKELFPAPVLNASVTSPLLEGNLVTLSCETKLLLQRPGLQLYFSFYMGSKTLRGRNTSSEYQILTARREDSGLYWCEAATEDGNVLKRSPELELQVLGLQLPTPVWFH
T8 sequence (P08637 17-208 F176V): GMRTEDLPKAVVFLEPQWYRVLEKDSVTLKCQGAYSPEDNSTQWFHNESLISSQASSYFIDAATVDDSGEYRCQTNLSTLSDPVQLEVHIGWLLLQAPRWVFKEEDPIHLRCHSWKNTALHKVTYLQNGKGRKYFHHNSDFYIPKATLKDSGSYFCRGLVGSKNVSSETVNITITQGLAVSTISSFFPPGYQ
T7 sequence (P08637 17-208): as the sequence (P08637 17-208 F176V) above, with V160F counted along it

B1: heterodimerized antibody GpH7-A5/GpH7-B3 variant L328_13S/GpL16-k0 (antibody, human IgG1, kappa)
heavy 1: not shown
heavy 2: not shown
light: DIVMTQSPLSLPVTPGEPASISCQASESLVHSNRNTYLHWYLQKPGQSPQLLIYKVSNRFSGVPDRFSGSGSGTDFTLKISRVEAEDVGVYYCSQNTHVPPTFGQGTKVEIERTVAAPSVFIFPPSDEQLKSGTASVVCLLNNFYPREAKVQWKVDNALQSGNSQESVTEQDSKDSTYSLSSTLTLSKADYEKHKVYACEVTHQGLSSPVTKSFNRGEC
notes: Anti-glypican-3 IgG1 with the alteration in only one H chain (the GpH7-B3 chain); also called He Ab
He_2aR/2b (IIaR/IIb) [1]: 0.78 ratio
He/Con_2aR (IIaR binding) [2]: 117 % of control (GpH7-A5/GpH7-B3/GpL16-k0 = 100)
He/Con_2b (IIb binding) [3]: 149 % of control (GpH7-A5/GpH7-B3/GpL16-k0 = 100)

B2: GpH7-Kn056/GpH7-Hl055/GpL16-k0 (antibody, human IgG1, kappa)
heavy 1: QVQLVQSGAEVKKPGASVTVSCKASGYTFTDYEMHWIRQPPGEGLEWIGAIDPKTGDTAYSESFQDRVTLTADKSTSTAYMELSSLTSEDTAVYYCTRFYSYTYWGQGTLVTVSSASTKGPSVFPLAPSSKSTSGGTAALGCLVKDYFPEPVTVSWNSGALTSGVHTFPAVLQSSGLYSLSSVVTVPSSSLGTQTYICNVNHKPSNTKVDKKVEPKSCDKTHTCPPCPAPEYYAGPSVFLFPPKPKDTLMISRTPEVTCVVVDVSDEDPEVKFNWYVDGVEVHNAKTKPREELYNATYRVVSVLTVLHQDWLNGKEYKCKVSNKALPAPIEKTISKAKGQPREPQVCTLPPSRDELTKNQVSLWCLVKGFYPSDIAVEWESNGQPENNYKTTPPVLDSDGSFFLYSKLTVDKSRWQQGNVFSCSVMHEALHNHYTQKSLSLSP
heavy 2: QVQLVQSGAEVKKPGASVTVSCKASGYTFTDYEMHWIRQPPGEGLEWIGAIDPKTGDTAYSESFQDRVTLTADKSTSTAYMELSSLTSEDTAVYYCTRFYSYTYWGQGTLVTVSSASTKGPSVFPLAPSSKSTSGGTAALGCLVKDYFPEPVTVSWNSGALTSGVHTFPAVLQSSGLYSLSSVVTVPSSSLGTQTYICNVNHKPSNTKVDKKVEPKSCDKTHTCPPCPAPELLAGPDVFLFPPKPKDTLMISRTPEVTCVVVDVSHEDPEVKFNWYVDGVEVHNAKTKPREELYNSTYRVVSVLTVLHQDWLNGKEYKCKVSNKALPMPEEKTISKAKGQPREPQVYTLPPSRCELTKNQVSLSCAVKGFYPSDIAVEWESNGQPENNYKTTPPVLDSDGSFFLVSKLTVDKSRWQQGNVFSCSVMHEALHNHYTQKSLSLSP
light: B1 light
notes: Heterodimerized anti-glypican-3 IgG1; also called Kn056/Hl055
KD ratio [4]: 2.9 fold (KD of GpH7-Kn033/GpH7-Hl033/GpL16-k0 divided by KD of this antibody)
KD ratio [5]: 20 fold (KD of GpH7-Kn033/GpH7-Hl033/GpL16-k0 divided by KD of this antibody)
KD ratio [6]: 44 fold (KD of GpH7-Kn033/GpH7-Hl033/GpL16-k0 divided by KD of this antibody)
KD ratio [7]: 14 fold (KD of GpH7-Kn033/GpH7-Hl033/GpL16-k0 divided by KD of this antibody)
KD ratio [8]: 1110 fold (KD of GpH7-Kn033/GpH7-Hl033/GpL16-k0 divided by KD of this antibody)
KD ratio [9]: 327 fold (KD of GpH7-Kn033/GpH7-Hl033/GpL16-k0 divided by KD of this antibody)
Kd [10]: 0.023 nM
Kd [11]: 30 nM
Kd [12]: 17 nM
Kd [13]: 260 nM
Kd [14]: 1.4 nM
Kd [15]: 0.66 nM

B3: GpH7-Kn033/GpH7-Hl033/GpL16-k0 (antibody, human IgG1, kappa)
heavy 1: not shown
heavy 2: not shown
light: B1 light
notes: Anti-glypican-3 IgG1 with knobs-into-holes only (knob Y349C/T366W; hole D356C/T366S/L368A/Y407V); also called Kn033/Hl033
A/I ratio (KD for FcγRIIb / KD for FcγRIIa R) [16]: 4.9
A/I ratio (KD for FcγRIIb / KD for FcγRIIa H) [17]: 6.2

B4: GpH7-Kn032/GpH7-Hl032/GpL16-k0 (antibody, human IgG1, kappa)
heavy 1: B2 heavy 2 with A234G, L293Q, M328L, Y347C, C354D, S364W, A366L, V405Y
heavy 2: B2 heavy 2 with A234G, L293Q, M328L
light: B1 light
notes: S239D/A330L/I332E in both H chains (called homodimerized); also called Kn032/Hl032
A/I ratio (KD for FcγRIIb / KD for FcγRIIa R) [16]: 1.8
A/I ratio (KD for FcγRIIb / KD for FcγRIIa H) [17]: 0.93

B5: GpH7-Kn037/GpH7-Hl036/GpL16-k0 (antibody, human IgG1, kappa)
heavy 1: B2 heavy 2 with L293Q, M328A, Y347C, C354D, S364W, A366L, V405Y
heavy 2: B2 heavy 2 with L293Q, M328A
light: B1 light
notes: G236A/S239D/I332E in both H chains (called homodimerized); also called Kn037/Hl036
A/I ratio (KD for FcγRIIb / KD for FcγRIIa R) [16]: 13
A/I ratio (KD for FcγRIIb / KD for FcγRIIa H) [17]: 8.6

B6: GpH7-Kn045/GpH7-Hl048/GpL16-k0 (antibody, human IgG1, kappa)
heavy 1: B2 heavy 1 with L293Q
heavy 2: B2 heavy 2 with L293Q, M328K
light: B1 light
notes: Knob chain L234Y/L235Y/G236A/H268D/S298A; hole chain G236A/S239D/A330K/I332E; also called Kn045/Hl048
A/I ratio (KD for FcγRIIb / KD for FcγRIIa R) [16]: 22
A/I ratio (KD for FcγRIIb / KD for FcγRIIa H) [17]: 9.5

B7: GpH7-Kn045/GpH7-Hl055/GpL16-k0 (antibody, human IgG1, kappa)
heavy 1: B2 heavy 1 with L293Q
heavy 2: B2 heavy 2
light: B1 light
notes: Knob chain L234Y/L235Y/G236A/H268D/S298A; hole chain G236A/S239D/Q295L/A330M/I332E; also called Kn045/Hl055
A/I ratio (KD for FcγRIIb / KD for FcγRIIa R) [16]: 18
A/I ratio (KD for FcγRIIb / KD for FcγRIIa H) [17]: 8.3

B8: GpH7-Kn056/GpH7-Hl055/GpL16-k0 (antibody, human IgG1, kappa)
heavy 1: B2 heavy 1
heavy 2: B2 heavy 2
light: B1 light
notes: Knob chain L234Y/L235Y/G236A/H268D/Q295L/S298A; hole chain G236A/S239D/Q295L/A330M/I332E; also called Kn056/Hl055
A/I ratio (KD for FcγRIIb / KD for FcγRIIa R) [16]: 16
A/I ratio (KD for FcγRIIb / KD for FcγRIIa H) [17]: 8.7
